One molecule from patent US20170008934A1, “BACTERIALLY FORMED MICROCIN S, A NEW ANTIMICROBIAL PEPTIDE, EFFECTIVE AGAINST PATHOGENIC MICROORGANISMS, E.G. ENTEROHEMORRHAGIC ESCHERICHIA COLI (EHEC)” (SYMBIOGRUPPE GmbH & CO. KG, priority 2011, published 2017) can be followed below.

The experiment deals with EHEC (86-24 O157:H7, O104:H4, O128:H2). The experiment in a line: in vitro adherence assay: inhibition of EHEC adherence to human intestinal epithelial cells (LOVO) after pre-incubation with test strains. Type of experiment: cell-based. The note with it: ESBL-producing O104:H4 outbreak strain, O128:H2 and O157:H7 EHEC isolates; FIG. 5 (tested as producer strain E. coli G3/10). The procedure: Enterohemorrhagic E. coli adhere to intestinal epithelial cells. In a second experiment, confluent monolayers of LOVO cells were pre-incubated with bacterial test strains at a multiplicity of infection (MOI) of 100:1 E. coli to host cells. The influence of EcN and E. coli G3/10 was tested. After two hours of incubation, cells were washed and infected with EHEC using an MOI of 100:1 EHEC to host cells. Three EHEC isolates were tested as indicator strains using the in vitro adherence assay. We used HUS-associated EHEC 86-24 serotype O157:H7 and two different isolates of the EHEC O104:H4 outbreak strain as well as an EHEC O128:H2 patient isolate. Since the EHEC O104:H4 isolates are ESBL producers, medical treatment is limited. Adherence efficiency in % are expressed as adherence of EHEC relative to adherence without any pre-incubation (negative control), which is set 100%. The data are the mean±SD of three separate experiments in duplicate wells.

B1: microcin S: new class IIa microcin, antimicrobial polypeptide of E. coli G3/10, SEQ ID NO: 7 (precursor with leader SEQ ID NO: 6) (protein, listed as Escherichia coli)
chain: NANSNYEGGGSRSRNTGARNSLGRNAPTHIYSDPSTVKCANAVFSGMVGGAIKGGPVGMTRGTIGGAVIGQCLSGGGNGNGGGNRAGSSNCSGSNVGGTCSR
With B1, the “inhibitory effect of EHEC” value is on record as “shows an inhibitory effect of EHEC”.
